# Assay results reported in the supplement of paper PMC10065799, “High-throughput profiling of sequence recognition by tyrosine kinases and SH2 domains using bacterial peptide display” (eLife, 2023).
# Columns and labels:
# AncSZ = test: phosphorylation enrichment, bacterial display (enrichment ratio); higher = better substrate or ligand; peptides without Tyr show the background
# EPHB1 = EPHB1 (UniProt P54762); test: as above
# EPHB2 = EPHB2 (UniProt P29323); test: as above
# FGFR1 = FGFR1 (UniProt P11362); test: as above
# FGFR3 = FGFR3 (UniProt P22607); test: as above
# Fer (mouse) = test: as above
# Fes = Fes (UniProt P07332); test: as above
# Fyn = Fyn (UniProt P06241); test: as above
# Hck = Hck (UniProt P08631); test: as above
# Jak2 = Jak2 (UniProt O60674); test: as above
# MERTK = MERTK (UniProt Q12866); test: as above
# c-Abl (mouse) = test: as above
# c-Src = test: as above
# Grb2 SH2 = Grb2 SH2 (UniProt P62993); test: SH2 binding enrichment of the phosphorylated peptide, bacterial display (enrichment ratio); higher = better substrate or ligand; peptides without Tyr show the background
# SHP2-C SH2 = test: as above
# c-Src SH2 = test: as above
# 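Throughout, for SH2 binding enrichment of the phosphorylated peptide, bacterial display: peptide library displayed on the E. coli surface as eCPX fusions, selected cells deep-sequenced, score is each peptide's frequency after selection divided by its frequency in the input.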
# 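Throughout, for phosphorylation enrichment, bacterial display: 11-residue human phosphosite peptides and single-mutation variants displayed on the E. coli surface, counted by deep sequencing, each peptide's frequency after selection divided by its frequency in the unselected input library; frequency after pTyr selection over input frequency; kinase dosed for 20-30% of maximal phosphorylation in three min.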
# FGFR1, sequence (P11362 whole entry, looked up): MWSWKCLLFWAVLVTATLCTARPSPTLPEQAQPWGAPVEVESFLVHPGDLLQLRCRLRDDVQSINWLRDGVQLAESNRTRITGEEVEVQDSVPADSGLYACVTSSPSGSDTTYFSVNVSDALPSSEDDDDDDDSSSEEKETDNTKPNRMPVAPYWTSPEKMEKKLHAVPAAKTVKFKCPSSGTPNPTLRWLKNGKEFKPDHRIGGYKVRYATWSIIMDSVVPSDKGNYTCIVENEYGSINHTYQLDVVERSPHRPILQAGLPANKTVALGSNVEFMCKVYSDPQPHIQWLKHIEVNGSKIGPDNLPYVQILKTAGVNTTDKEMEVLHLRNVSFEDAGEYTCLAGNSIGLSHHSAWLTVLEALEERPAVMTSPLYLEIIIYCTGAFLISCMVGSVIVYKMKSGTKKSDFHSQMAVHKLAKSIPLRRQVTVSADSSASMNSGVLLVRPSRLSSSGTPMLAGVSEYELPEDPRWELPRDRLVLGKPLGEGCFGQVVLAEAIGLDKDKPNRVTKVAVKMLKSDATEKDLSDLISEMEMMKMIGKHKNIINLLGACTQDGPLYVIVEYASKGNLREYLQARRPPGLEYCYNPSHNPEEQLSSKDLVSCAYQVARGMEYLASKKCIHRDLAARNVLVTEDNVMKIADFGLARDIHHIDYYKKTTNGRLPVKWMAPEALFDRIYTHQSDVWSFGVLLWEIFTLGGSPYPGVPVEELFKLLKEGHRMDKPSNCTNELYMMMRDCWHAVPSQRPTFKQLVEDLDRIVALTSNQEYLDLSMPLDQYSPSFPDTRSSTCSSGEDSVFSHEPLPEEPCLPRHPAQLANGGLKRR
# Grb2 SH2, sequence (P62993 whole entry, looked up): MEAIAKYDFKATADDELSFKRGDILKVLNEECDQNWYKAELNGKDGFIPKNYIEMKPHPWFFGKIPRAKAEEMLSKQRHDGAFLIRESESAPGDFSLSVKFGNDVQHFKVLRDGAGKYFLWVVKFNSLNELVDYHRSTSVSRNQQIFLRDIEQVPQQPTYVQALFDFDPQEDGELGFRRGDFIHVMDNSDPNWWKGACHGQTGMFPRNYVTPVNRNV
# MERTK, sequence (Q12866 whole entry, looked up): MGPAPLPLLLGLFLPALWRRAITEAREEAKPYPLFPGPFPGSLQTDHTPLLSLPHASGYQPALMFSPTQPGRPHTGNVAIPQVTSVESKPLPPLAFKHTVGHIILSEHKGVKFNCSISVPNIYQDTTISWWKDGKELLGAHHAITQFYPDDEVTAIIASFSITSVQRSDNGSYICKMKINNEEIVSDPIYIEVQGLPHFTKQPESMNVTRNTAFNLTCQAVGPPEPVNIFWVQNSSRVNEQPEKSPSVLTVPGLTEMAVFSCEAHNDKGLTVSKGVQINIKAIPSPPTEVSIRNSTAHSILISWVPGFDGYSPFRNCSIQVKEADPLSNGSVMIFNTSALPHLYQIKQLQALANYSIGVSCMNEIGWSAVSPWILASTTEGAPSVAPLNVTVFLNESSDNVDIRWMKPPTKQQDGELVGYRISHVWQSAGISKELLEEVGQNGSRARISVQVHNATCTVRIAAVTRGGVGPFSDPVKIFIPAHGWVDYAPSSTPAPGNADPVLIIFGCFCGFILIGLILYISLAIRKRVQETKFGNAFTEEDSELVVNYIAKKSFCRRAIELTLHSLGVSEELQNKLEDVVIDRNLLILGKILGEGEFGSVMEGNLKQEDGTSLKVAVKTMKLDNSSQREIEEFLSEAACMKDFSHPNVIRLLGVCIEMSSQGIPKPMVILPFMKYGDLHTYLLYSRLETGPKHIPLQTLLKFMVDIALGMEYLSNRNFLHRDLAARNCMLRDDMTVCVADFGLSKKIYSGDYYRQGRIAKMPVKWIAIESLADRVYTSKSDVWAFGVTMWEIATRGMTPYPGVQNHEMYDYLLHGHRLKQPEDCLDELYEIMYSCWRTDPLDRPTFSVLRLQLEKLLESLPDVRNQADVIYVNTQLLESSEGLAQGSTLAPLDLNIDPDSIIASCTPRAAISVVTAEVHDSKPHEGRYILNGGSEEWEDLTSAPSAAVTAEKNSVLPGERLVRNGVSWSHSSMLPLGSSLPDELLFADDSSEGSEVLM
# Hck, sequence (P08631 whole entry, looked up): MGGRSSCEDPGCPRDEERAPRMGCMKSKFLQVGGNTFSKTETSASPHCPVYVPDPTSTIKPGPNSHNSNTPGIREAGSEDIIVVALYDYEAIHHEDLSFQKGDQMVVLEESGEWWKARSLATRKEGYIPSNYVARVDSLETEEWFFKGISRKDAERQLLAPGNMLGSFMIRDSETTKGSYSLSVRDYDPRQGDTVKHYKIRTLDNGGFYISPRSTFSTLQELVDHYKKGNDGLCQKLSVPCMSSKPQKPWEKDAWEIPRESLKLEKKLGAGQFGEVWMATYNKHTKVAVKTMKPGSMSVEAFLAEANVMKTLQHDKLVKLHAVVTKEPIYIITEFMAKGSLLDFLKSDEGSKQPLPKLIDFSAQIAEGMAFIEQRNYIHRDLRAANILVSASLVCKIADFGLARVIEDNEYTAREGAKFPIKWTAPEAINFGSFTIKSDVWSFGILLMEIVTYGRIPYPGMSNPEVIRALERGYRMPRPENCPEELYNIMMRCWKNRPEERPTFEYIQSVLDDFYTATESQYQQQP
# EPHB2, sequence (P29323 whole entry, looked up): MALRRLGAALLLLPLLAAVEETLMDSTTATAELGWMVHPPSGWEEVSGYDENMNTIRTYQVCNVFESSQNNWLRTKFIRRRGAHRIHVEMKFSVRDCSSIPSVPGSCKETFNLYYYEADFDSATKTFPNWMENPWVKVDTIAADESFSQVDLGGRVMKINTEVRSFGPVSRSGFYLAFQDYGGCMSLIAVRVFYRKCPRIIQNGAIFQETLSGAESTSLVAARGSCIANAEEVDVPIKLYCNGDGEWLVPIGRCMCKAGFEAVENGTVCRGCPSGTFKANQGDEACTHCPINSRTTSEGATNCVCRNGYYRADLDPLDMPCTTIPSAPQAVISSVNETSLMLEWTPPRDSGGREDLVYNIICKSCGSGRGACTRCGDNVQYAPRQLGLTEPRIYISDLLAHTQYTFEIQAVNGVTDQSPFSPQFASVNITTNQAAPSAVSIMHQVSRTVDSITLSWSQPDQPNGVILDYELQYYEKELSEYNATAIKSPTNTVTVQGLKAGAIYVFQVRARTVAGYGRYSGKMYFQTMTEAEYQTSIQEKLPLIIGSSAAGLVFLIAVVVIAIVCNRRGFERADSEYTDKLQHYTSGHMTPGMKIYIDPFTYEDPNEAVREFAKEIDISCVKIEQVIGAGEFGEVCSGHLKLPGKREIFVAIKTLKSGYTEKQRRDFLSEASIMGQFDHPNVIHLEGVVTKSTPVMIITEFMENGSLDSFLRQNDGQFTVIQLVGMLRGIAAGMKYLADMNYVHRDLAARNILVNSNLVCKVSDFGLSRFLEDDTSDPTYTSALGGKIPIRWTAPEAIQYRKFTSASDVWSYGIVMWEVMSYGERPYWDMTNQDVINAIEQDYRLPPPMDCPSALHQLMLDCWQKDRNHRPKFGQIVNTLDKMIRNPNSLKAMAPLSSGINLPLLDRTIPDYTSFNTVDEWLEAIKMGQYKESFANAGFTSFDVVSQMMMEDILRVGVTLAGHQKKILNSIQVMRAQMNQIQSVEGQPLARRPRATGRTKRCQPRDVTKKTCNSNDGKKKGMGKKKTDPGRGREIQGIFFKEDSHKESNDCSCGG
# Jak2, sequence (O60674 whole entry, looked up): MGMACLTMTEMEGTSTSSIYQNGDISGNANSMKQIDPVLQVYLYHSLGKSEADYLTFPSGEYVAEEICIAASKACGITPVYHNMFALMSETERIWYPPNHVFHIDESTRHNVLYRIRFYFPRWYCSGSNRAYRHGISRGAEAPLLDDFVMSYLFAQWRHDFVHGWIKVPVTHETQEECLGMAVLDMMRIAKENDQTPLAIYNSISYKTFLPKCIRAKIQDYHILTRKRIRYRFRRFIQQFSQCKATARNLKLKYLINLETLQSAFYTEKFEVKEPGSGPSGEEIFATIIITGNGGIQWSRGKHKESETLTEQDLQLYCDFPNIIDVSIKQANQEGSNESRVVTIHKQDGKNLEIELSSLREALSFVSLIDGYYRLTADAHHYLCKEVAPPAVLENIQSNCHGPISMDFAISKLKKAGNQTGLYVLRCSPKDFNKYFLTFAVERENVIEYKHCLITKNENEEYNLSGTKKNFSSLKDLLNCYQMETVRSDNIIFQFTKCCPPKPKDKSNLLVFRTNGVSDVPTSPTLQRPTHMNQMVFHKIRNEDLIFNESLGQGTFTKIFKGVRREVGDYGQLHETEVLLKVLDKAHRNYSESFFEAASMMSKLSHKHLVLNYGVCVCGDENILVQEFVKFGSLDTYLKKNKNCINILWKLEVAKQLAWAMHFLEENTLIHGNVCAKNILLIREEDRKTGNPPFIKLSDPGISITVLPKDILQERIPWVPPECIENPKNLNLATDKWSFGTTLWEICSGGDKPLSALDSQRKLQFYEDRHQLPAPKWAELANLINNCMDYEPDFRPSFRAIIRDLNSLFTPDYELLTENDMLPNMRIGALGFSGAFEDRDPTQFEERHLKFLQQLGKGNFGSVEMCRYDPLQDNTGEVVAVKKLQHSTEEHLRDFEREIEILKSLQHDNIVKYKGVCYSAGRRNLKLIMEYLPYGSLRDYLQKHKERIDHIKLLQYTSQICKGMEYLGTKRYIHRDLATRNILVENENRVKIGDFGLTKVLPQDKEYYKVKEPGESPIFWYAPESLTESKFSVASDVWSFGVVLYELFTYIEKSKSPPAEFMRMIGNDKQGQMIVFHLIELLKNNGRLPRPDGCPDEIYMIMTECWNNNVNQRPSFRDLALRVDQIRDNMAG
Sequence,phosphorylation enrichment (AncSZ),phosphorylation enrichment (EPHB1),phosphorylation enrichment (EPHB2),phosphorylation enrichment (FGFR1),phosphorylation enrichment (FGFR3),phosphorylation enrichment (Fer (mouse)),phosphorylation enrichment (Fes),phosphorylation enrichment (Fyn),phosphorylation enrichment (Hck),phosphorylation enrichment (Jak2),phosphorylation enrichment (MERTK),phosphorylation enrichment (c-Abl (mouse)),phosphorylation enrichment (c-Src),SH2 binding enrichment (Grb2 SH2),SH2 binding enrichment (SHP2-C SH2),SH2 binding enrichment (c-Src SH2)
NGSFRYVIISQ [LRP1B_Y1988],1.12,0.599,0.581,0.603,0.71,0.513,1.25,0.528,0.657,0.958,0.448,0.727,0.422,1.17,5.12,2.17
NHYKIYNLYAE [PTEN_Y68_C71Y],0.749,0.455,0.641,0.461,0.541,0.481,0.723,2.14,2.54,0.664,0.461,0.56,2.43,0.862,0.698,0.675
NKEAIYSGYIR [SMCHD1_Y283],0.724,5.4,11.2,0.565,0.526,3.43,0.687,11.3,10.4,0.571,9.45,24.3,7.96,0.871,0.845,0.567
NKVQFYIPDMN [NCR1_Y84_K82Q],0.801,0.501,0.533,0.579,0.711,0.447,0.984,0.411,0.532,1.01,0.483,0.744,0.431,0.976,0.888,0.464
NLDRFYQQVTK [SEC16A_Y1041],0.734,0.516,0.531,0.45,0.574,0.621,0.766,0.43,0.599,0.639,0.58,0.587,0.498,0.862,0.628,2.6
NNPAFYVLEGV [INPPL1_Y987_YF],0.956,0.5,0.581,0.653,0.612,0.42,1,0.699,0.485,0.87,0.554,0.616,0.638,0.768,0.693,0.682
NNRVFYGNSDC [RS1_Y177_R182C],0.954,0.489,0.486,0.467,0.62,0.432,0.863,0.434,0.429,0.862,0.369,0.742,0.381,1.16,0.811,0.613
NPETCYQKLKK [TK2_Y190_R192K],0.906,0.583,0.451,0.444,0.774,0.509,1.07,0.428,0.583,0.921,0.386,0.765,0.425,0.829,0.814,0.783
NQNIGYKLGHR [KCNN3_Y268],0.402,0.324,0.303,0.339,0.358,0.322,0.49,0.361,0.396,0.391,0.344,0.313,0.398,1,0.782,0.481
NRLTDYYEPLL [BBS10_Y536],2.64,8.92,6.55,11,7.93,2.11,0.826,1.03,3.28,1.63,3.6,1.61,1.33,0.788,0.755,1.93
NSNSDYVDILP [SH2D1B_Y127_V130I],1.85,3.31,3.01,3.99,3.11,0.682,1.22,0.514,0.623,1.09,0.6,1,0.573,0.788,0.503,0.571
NSRYTCKLEVK [USH2A_Y3747_Y3747C],1.21,0.678,0.57,0.471,0.885,0.501,1.45,0.407,0.471,1.19,0.387,0.921,0.441,0.808,0.626,0.449
NTDETYSIDNE [TUBB2B_Y200_C201S],1.27,0.622,0.632,0.551,0.715,0.63,1.35,0.696,0.694,1.23,0.5,0.886,0.726,0.761,0.547,0.421
NVGGKYSYLKV [GRM3_Y478],0.625,0.415,0.39,0.449,0.476,0.446,0.65,0.358,0.515,0.635,0.448,0.524,0.351,1.08,1.43,2.27
NVTRKYSRQIL [MAP3K2_Y463_T464S],0.425,0.356,0.317,0.363,0.352,0.402,0.446,0.491,0.361,0.417,0.344,0.399,0.403,1.06,0.607,0.508
NVVHEYSSELE [FGB_Y172_N170H],1.02,0.544,0.656,0.472,0.705,0.519,1.1,0.436,0.481,1.02,0.473,0.987,0.649,0.908,0.637,1.48
NWGKKYPTCNS [PTPRZ1_Y53],0.771,0.507,0.558,0.459,0.603,0.485,0.978,0.523,0.463,0.85,0.43,0.839,0.435,1.06,1.03,0.787

Sequence,phosphorylation enrichment (AncSZ),phosphorylation enrichment (EPHB1),phosphorylation enrichment (EPHB2),phosphorylation enrichment (FGFR1),phosphorylation enrichment (FGFR3),phosphorylation enrichment (Fer (mouse)),phosphorylation enrichment (Fes),phosphorylation enrichment (Fyn),phosphorylation enrichment (Hck),phosphorylation enrichment (Jak2),phosphorylation enrichment (MERTK),phosphorylation enrichment (c-Abl (mouse)),phosphorylation enrichment (c-Src),SH2 binding enrichment (Grb2 SH2),SH2 binding enrichment (SHP2-C SH2),SH2 binding enrichment (c-Src SH2)
NYYDTCIKTCL [IQGAP2_Y1445_Y1445C],1.3,7.47,2.32,7.57,5.45,1.05,1.07,1.52,1.51,1.17,5.87,0.894,1.16,0.856,0.706,3.21
PADCRYYAFPQ [GAMT_Y222],3.91,12.1,12.2,10.9,8.15,10.4,1.7,2.3,3.84,6.5,14.4,5.14,4.71,0.898,0.847,3.02
PDKRIYQFTAA [SKAP2_Y197],0.73,0.779,0.553,0.476,0.497,0.769,0.708,0.566,0.578,0.651,0.999,0.47,0.729,0.82,0.57,0.645
PDNEPYIFKVF [PIK3AP1_Y553],2.37,0.684,0.787,1.16,1.5,0.647,2.25,0.846,0.758,2.79,0.725,1.19,1.05,1.1,1,0.755
PEADKYRLTFA [FGG_Y300_YF],1.05,0.887,0.697,0.626,0.78,0.546,1.18,0.553,0.76,1,0.451,0.918,0.568,0.75,0.673,0.475
PELINCHQHNS [BTK_Y361_Y361C],0.938,0.676,0.9,0.682,0.7,0.56,1.04,0.297,0.544,0.971,0.712,0.876,0.69,1.01,0.919,0.641
PELINYHQHNS [BTK_Y361],0.981,0.666,0.769,1.27,1.02,0.664,1.06,0.648,0.69,1,0.579,0.561,0.68,1,0.767,0.466
PESIPYRKFTT [NTRK1_Y701_L700P],0.823,0.598,0.668,0.594,0.936,0.353,0.917,0.375,0.721,0.992,0.86,0.879,0.485,0.747,0.507,0.476
PESTLYRKFTT [NTRK1_Y701_I699T],1.01,0.433,0.275,0.646,0.644,0.448,0.83,0.347,0.608,0.812,0.399,1.12,0.467,0.879,0.538,0.444
PEVRRYVLPLN [RPE65_Y368],1.41,1.3,0.811,0.606,1.3,0.893,1.45,0.597,0.916,1.2,0.92,1.44,0.804,0.807,0.64,0.878
PFRSIYFSSPK [MPG_Y75_YF],0.851,0.382,0.571,0.599,0.809,0.595,0.666,0.658,1.11,0.553,0.463,0.398,0.669,0.843,0.565,0.447
PGLSSYGVPGS [FLNB_Y1530_A1534G],0.774,0.494,0.578,0.623,0.643,0.508,0.786,0.598,0.543,0.355,0.622,0.715,0.454,0.934,0.611,0.534
PGVNFYFQVSA,1.41,1.27,1.24,0.557,1,0.724,1.93,0.414,0.526,1.61,0.445,1.29,0.523,0.682,0.524,0.446
PINEPYGDDLD [JUP_Y693_M697L],1.35,0.799,0.921,0.873,0.988,0.734,1.16,0.781,0.532,1.16,0.653,0.972,0.696,0.727,0.568,0.655
PKEQKYSFLQD [GH1_Y68_N73D],0.948,0.605,0.693,0.597,0.532,0.435,1.16,0.523,0.619,0.809,0.858,1.05,0.628,0.945,0.895,1.15
PKEQRYSFLQN [GH1_Y68_K67R],1.27,0.75,0.901,1.12,0.617,0.902,1.44,0.605,0.904,1.62,6.49,0.744,0.631,1.04,1.11,2.17
